pKd: −log10 of the molar value.
Target: H6GY-titin I28 protein
Experiment: sedimentation equilibrium, 3 loading concentrations, ten fold molar excess of Ni2+; Ni(II)-mediated self-association (monomer-dimer)

How did the pKd turn out when H6GY-titin I28 protein was run?
The pKd was 3.70.

— patent US20100267005A1
